In FireProtDB (doi:10.1006/jmbi.1996.0075):
Several values for one entry are separate records, joined by “and”; a condition that tells them apart may be missing. Equal values may be shown once.

Details: Equus caballus, 20 °C, CD, reversible: yes; for unfolding free energy: Thermal

Chain of Cytochrome c wild type, P00004 (P00004 whole entry): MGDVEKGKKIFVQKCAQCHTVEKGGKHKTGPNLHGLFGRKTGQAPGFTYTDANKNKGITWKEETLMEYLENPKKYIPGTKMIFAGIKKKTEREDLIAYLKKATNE

With Cytochrome c wild type, P00004 the denaturant m value (pH 2, GdnHCl, glycine-HCl 5-10 mM, NaClO4 200 mM) was 1.58 kcal/mol/M and 1.24 kcal/mol/M and 1.12 kcal/mol/M, the unfolding free energy (pH 3.9, Sodium acetate 5-10 mM, NaCl) was 0.57 kcal/mol and the unfolding free energy (pH 6, Sodium phosphate 5-10 mM, NaCl) was 1.39 kcal/mol. For the same substance, the denaturant m value (pH 7, GdnHCl, Sodium phosphate 5-10 mM, NaCl) was 3.01 kcal/mol/M and 2.1 kcal/mol/M, the unfolding free energy (pH 7, Sodium phosphate 5-10 mM, NaCl) was 1.7 kcal/mol and the denaturant m value (pH 7, Urea, Sodium phosphate 5-10 mM, NaCl) was 1.2 kcal/mol/M and 0.86 kcal/mol/M.
